{"source": "a protein production outcome set (Wang et al. 2014)", "test": "label from the status in PepcDB records"}
{"sequence": "MIFENRLALSAMAGVNNAEFCRKQKASLVILGGFNADRRALEAAEKAVKRGRKEFLFGIDGIEGEIKKLGRRKFAVNVRSSSLEGYLNVAELVAEFEGIIEINAHCRQPEFVEIGCGEWLLFNHERLVEIVSKTSRIAPTFVKIRGGHKLDYEKIARKLFDAGCLAIHVDAMIPGGGCDFSLIERISRIGNVIGNNSFVDIESGERIIMAGAKMASAARAVLRDENFFEKMLRSPLLSQPVELSCGRFRLEHHHHHH", "values": [{"measurement": "protein production", "result": "not failed"}]}
{"sequence": "MFKNLIWLKEVDSTQERLKEWNVSYGTALVADRQTKGRGRLGRKWLSQEGGLYFSFLLNPKEFENLLQLPLVLGLSVSEALEEITEIPFSLKWPNDVYFQEKKVSGVLCELSKDKLIVGIGINVNQREIPEEIKDRATTLYEITGKDWDRKEVLLKVLKRISENLKKFKEKSFKEFKGKIESKMLYLGEEVKLLGEGKITGKLVGLSEKGGALILTEEGIKEILSGEFSLRRS", "values": [{"measurement": "protein production", "result": "not failed"}]}
{"sequence": "KVIIAIDAGHGGQDPGAIGPNGTKEKNVTIAIARKLRALLNADPQFKPVLTRDGDYFISVMGRSEVARKQNANFLVSIHADAAPNRDATGASVWVLSNRRANSEMAGWLEQHEKQSELLGGAGDVLANSQADPYLSQAVLDLQFGHSQRVGYDVATNVLSQLQRIGNLHKRRPEHASLGVLRSPDIPSILVETGFISNNGEERLLGSDDYQEQIAEAIYNGLRNYFMQHPLQSAPRGEAAQTASAAAPGGMLIN", "values": [{"measurement": "protein production", "result": "failed"}]}
{"sequence": "MASYHARQRDPLLDQNMQAMLERRGRELLGIGLLIVAFLFMLILGTYSPEDPGWMVATDEPAQNALGRIGAAISSTLMIIAGKGSWGLPIVAGAWGARFLLHRGEERALGRIVFAVIAIALGSIYAATHVPGSEWTHSFGLGGLFGDTVLGALLEILPLPAAYGLKLLSLLVGGGLVAMGLFVCGFDLRELRQVTQFLLVGLVVTYNAALQLAGRGSVQAAQLMQEKIRAHREGRAAVDAAAVRGEARAEAMPRPRSRFREPEPEPEPAPRMGFLSRLRAQAPEDDPEPVIEEAAWGRPATLRADTTRPAALRSEGLRAEPRHVEPAPAPAQPRTGLLARMPQIIRRVTDPEAELVEHALSDAAANAEGPTEDRIKARINDVIRSRVRQSTGPLSPIAAAIARREPPMARRRSGPAPMVATRRAPMELPPEPPVVAGAGEKIRFASGMVASRMPGAATARLAVSALEADAAPAHAPRLMAEAYDAYEACETGEPILTAREQLAYADEDEAAAYDEAYAAEEEVESYAAEEAAWLPHEDFDDSTDWAPEPAAPAAPMMAPAMAPKPAAAPAARAPAVRPPEAQPKPRFEEQETHYELPPLSLLACPSTIVRNTLSVDALKENARMLESVLEDYGVKGEIVDAQAGPVVTLYELEPAPGLKASRVIGLADDIARSMSALSARVSTVPGRTVIGIELPNVSREKVILREILAARDFGDSSMRLPLALGKDIAGRPVVANLAKMPHLLIAGTTGSGKSVAINTMILSLLYKLTPEECRLIMIDPKMLELSVYDGIPHLLSPVVTDPKKAVVALKWVVGEMEERYRKMSKLGVRNIEGYNGRVSEALEKGEMFKRTIQTGFDEDTGEPVFETEDLQPVRLPFIVVVVDEMADLMMVAGKEIEACIQRLAQMARASGIHLIMATQRPSVDVITGTIKANFPTRISFQVTSKIDSRTILGEQGAEQLLGMGDMLYMAGGAKITRIHGPFVSDEEVEEIVNHLKSFGPPKYMSGVVEGPEDDRADDIDAVLGLGGNTDSEDALYDQAVAIVAKDRKCSTSYIQRKLGIGYNKAARLVEQMEEQGVVTAANHVGKREILLPEQ", "values": [{"measurement": "protein production", "result": "failed"}]}
{"sequence": "MQDFGDNSGRAPAAGRSWRNTPSSFGVVAIAFHWTIAVLFVAQLALGYLMSRDSIDPVLQFNFFQYHKSIGFLVLALAVPRCLWSVFSRKPRAVDGEGPVSRFAARVAHSALLFLTLAVPLAGWAVASTSPLQIPSYVFDLVVVPGLPMTISDQAEAFWSDVHATLAYLAAVIVLLHVIAALWHHFIRRDPTLRRMLPLPDTTDNSRREISSGQ", "values": [{"measurement": "protein production", "result": "failed"}]}
{"sequence": "MNIALARSVVGERLRLLAERMGLVAKRLQDMSQDDTPGRCTPEHCAIQVDSDDEIGDGARAFNQLIQALSLSIETETAVRTFTEMLVSELDVHQLTEQALALLLQHTGADGGAILIEVDGEIRVAASQGIGSAHTLANNDRVRSALRTERRHRVQLPEDLVVDGMLAQFRPKEVIIDPVRHKEVVLGAVVLASGQGFSAEDRNRLDVFERGLALALHNALLYDRLQTLAALDPLTGAYNRRFGMARLREEFRRAVRLNLPLGILMFDIDYFKRINDTYGHLAGDRVLSRVAKTARSVLREGDVLIRYGGEEFIAVLPAASLHDLEYVGERLRHQVDDLMLMDGDQSMHVTVSIGAAAYPDTDVEDETALVDRADKALYAAKSDGRNRLVIS", "values": [{"measurement": "protein production", "result": "failed"}]}
{"sequence": "MASNGHTLRLVINRDKHDSVIRGLYLVTDHDDNLIPRVEAAIDGGARVVQYRNKNQDRESRLALGLELRELCRRRSIPFIVNDDLEMAVSLKADGLHLGQGDGDPREARRVLGPGKIIGVSTHTLSEALEAQAAGVDYIGLGAMFPSRSKEVEHVAGSELLAAIRSSISIPIVAIGGITRDNGASVIDAGADAVAVISAVLSHPDPALAATEIALLFNRRAPFPRGSVLTVAGSDSGGGAGIQADLKTVTLLGSYGSSVLTALTAQNTRGVSGIHGVPPAFVADQLDAVFSDIPVDVVKTGMLFSAETIVAIAAKLTEYRRRMVVVDPVMVAKGGANLIDRGAVSVLKERLFPLAYLVTPNIPEAERLTGANISDEESMREAARRLHRLGARNVLLKGGHLLAGDSVDILFDGAAFHRFVSPRILSKNTHGTGCTFASAIATYLAQGDPLREAIARAKRYITAAIRLAQPLGRGHGPVNHILAAEDVRDR", "values": [{"measurement": "protein production", "result": "failed"}]}
{"sequence": "MKISFSESQKLFAYFSGLIAALSLFIYYVSAQQSEGALILCITFGVIAAGIWFGPIYALAVTLIVLFVLGTLMMFFQTGQTSLFPAEEGLRMLVVWGIALLLFSFISGRIHDITAELRRSMTRLQSEIKSYVAVDRVTGFDNKQRMKLELSEEIKRAERYGNSFVFLLLHMHYFKEFKSLYGEKETDRLFQYVGQQIRTSVRETDKKFRPSDERIGIVLTHTPAEHMPAVLTKLKKQLDTYQLENGKYVSLTFHVCYLPYRNDIQTADQFLEELENEMMMNEL", "values": [{"measurement": "protein production", "result": "failed"}]}
{"sequence": "LRARTYGEGGFRVERVLEERPAFTRVQFSYLSDGLRVHGFANLPKGRGPFPVVVVLHGYVEPSRYRLLAYTTPYADFLAERGYLVLHPNFRGHPPSEGAPAQGLRHVYAVDVLNLLAEVRRGAFPQADPAR", "values": [{"measurement": "protein production", "result": "failed"}]}
{"sequence": "MNNNDLFQASRRRFLAQLGGLTVAGMLGPSLLTPRRATAAQAATDAVISKEGILTGSHWGAIRATVKDGRFVAAKPFELDKYPSKMIAGLPDHVHNAARIRYPMVRVDWLRKRHLSDTSQRGDNRFVRVSWDEALDMFYEELERVQKTHGPSALLTASGWQSTGMFHNASGMLAKAIALHGNSVGTGGDYSTGAAQVILPRVVGSMEVYEQQTSWPLVLQNSKTIVLWGSDLLKNQQANWWCPDHDVYEYYAQLKAKVAAGEIEVISIDPVVTSTHEYLGREHVKHIAVNPQTDVPLQLALAHTLYSENLYDKNFLANYCVGFEQFLPYLLGEKDGQPKDAAWAEKLTGIDAETIRGLARQMAANRTQIIAGWCVQRMQHGEQWAWMIVVLAAMLGQIGLPGGGFGFGWHYNGAGTPGRKGVILSGFSGSTSIPPVHDNSDYKGYSSTIPIARFIDAILEPGKVINWNGKSVKLPPLKMCIFAGTNPFHRHQQINRIIEGLRKLETVIAIDNQWTSTCRFADIVLPATTQFERNDLDQYGNHSNRGIIAMKQVVPPQFEARNDFDIFRELCRRFNREEAFTEGLDEMGWLKRIWQEGVQQGKGRGVHLPAFDDFWNNKEYVEFDHPQMFVRHQAFREDPDLEPLGTPSGLIEIYSKTIADMNYDDCQGHPMWFEKIERSHGGPGSQKYPLHLQSVHPDFRLHSQLCESETLRQQYTVAGKEPVFINPQDASARGIRNGDVVRVFNARGQVLAGAVVSDRYAPGVARIHEGAWYDPDKGGEPGALCKYGNPNVLTIDIGTSQLAQATSAHTTLVEIEKYNGTVEQVTAFNGPVEMVAQCEYVPASQVKS", "values": [{"measurement": "protein production", "result": "failed"}]}
{"sequence": "KYPFLREAGSSFKDRDVTKMSDLIATWDGQDIKGPALIGVPLSKSSISHSGASFAPGTIRQALKHSSAYSAELGEHVVSELLYDLGDIDIHVTDIVKSHHHIFQTMHALLSDHPDWVPLILGGDNSISYSTIKAIAQTKGTTAVIQFDAHHDVRNTEDGGPTNGTPFRRLLDEEIIEGQHLIQLGIREFSNSQAYEAYAKKHNVNIHTMDMIREKGLIPTIKEILPVVQDKTDFIFISVDMDVLDQSHAPGCPAIGPGGLYTDELLEAVKYIAQQPNVAGIEIVEVDPTLDFRDMTSRAAAHVLLHALK", "values": [{"measurement": "protein production", "result": "failed"}]}
{"sequence": "MIYGILSKNLGMPTPTFLVCPDVVKFENVGQIAVVNGMVYLGGSVGIDKSGTLHKGLEEQTRQTFDNIRKCLEYANSGLDYIVSLNIFLSTSLSDSEEARFNELYREVFCVPATRPCRCCVRAQLQEGLLVEVVNVVAAQK", "values": [{"measurement": "protein production", "result": "not failed"}]}
{"sequence": "MLNIEIYEEAMCCSTGVCGPEPDETLIKTNQINEYLKQNQIEVQRYNMNNNPNEFIQNKEVIRLIQEKGDEVLPITFIEGNIAKTGAYITQEEADEIITVNQMRNGGCCGGDGCC", "values": [{"measurement": "protein production", "result": "not failed"}]}
{"sequence": "MINMCYNFENVKKAYEDQLKNYIKNSLIPNLSSHANNEVVKISMKKLANLGFGYLVDSTLSSITGYYKVRDWIEELLKEELQKSGENKCCNIVLCDYPEEFEISMREIPYYVNKVVKFNGVIISASYPCVLSKKHLYICPKCGRIKEVYFSELFWDDKVFCEFCGGKMEFANVMDYENFQELVVQDLSDESEYYGIEKNPIVWYCGAKPYYFGHVKITGIVREVPRSSKSRIYELIVQAINVEKLGVEKSLINLTEEDVKNIKKVAKRGDIIDILADILIPPLLCDDAIVRKAILIQQIAPYLEDIGKINILLVTEVGIDKTAILKRIGNIPGNNFINIAALKEEELATPYDKRSNILGKFYTVCGGVIPRTLGVLCIDDFNENNKLSTKLSEAFERNVLTTNKGSFYCVPAECSFLCACYPKTKFRKFDQKKSIIKQIGISSILLKNFDLIFPIRDIPDKDRDEEVAKYIFLKYINSDNEEIEGYDYVFVDVGGEKIKIDFEFLKKYVVYSRQITPKITDEVIEKISNWYDEMRKNHYITAKQLNTVIKLSIAVARAKLKECVDEDDVKEAIDIIMHYLKQVVYNPKKGIIDVILLYKNKT", "values": [{"measurement": "protein production", "result": "failed"}]}
{"sequence": "EDYSCFIFRHFPQVQIHPHAQRAAQAAEAAAAQGQFWLMNDTLFDHQQRLENGYLVEYANDLGLDIPQFLKELAKQVHVDRIKKDIEGGLQSGVMAVPALFVNGILYRDCWNIKQLIATIIASSY", "values": [{"measurement": "protein production", "result": "failed"}]}
{"sequence": "MGISNIKQLYSKWKSLQPLKPEDLKRWNDKFKLEFNYNSNHLEGNTLTYGQTKLLLMFGETSGNASLKDYEEMKAHNVGLEMIKQEAQDKERPLTESFIRELNRTILVQDYWKNAKTPDGQDIRMQIKVGEYKSRPNSVLTATGEVFSYASPEETPAFMTSLVDWYNLEADKGILTPVELAALLHYRYIRIHPFEDGNGRIARLLVNFVLHRYGYPMIVIHSEDKSNYLNILHQCDVEAGLTPSDGANATLNDILPFVNYLSSCLIRSLTLAIKAAKGESIEEEGDFDKK", "values": [{"measurement": "protein production", "result": "not failed"}]}
{"sequence": "MQRLLLASSLLLALSACSDKSAPANTADAAAPAAAPAATAPATAPELIPRDALFGNPERASVRISPDGKYLSWVAPLDGVLNVWVAPVDAPDKARAITKDTARGIRSYYWTYHSDTLLYLRDTGGDEDFHLYAVNLSDGSSKDLTPFKKTNAEVYGISDQHPDAIMVGMNDRDAKWHDLYKVELASGTRTLVQKNTDSLDSYLLDGNYQLRYATRATDDAGRELLVPEGKGWKSVDRIPFEDVTNTAPAGLTDDGKTLYMLDSRNRDTAALYAIDTASNARTLLFEDARADAGSTLNDPKTGVVQAVSTDYLREEWKTLDTSIAADLQKLKSLGPGDAGIAARTLDDRTWIVAYSAAETPLTYYRYDRADGGKLTKLFSARPALEGKPLVPMWPQEIAARDGLKLVSYLSLPAEADSNHDGKADKAVPLVLFVHGGPWARDSYGYGAYEQWLANRGYAVLSVNFRGSTGFGKAFTNAGNGEWAGKMHYDLLDAVQWAVKQGVTTPQDVAIMGGSYGGYATLVGMTFTPDAFKCGVDIVGPANLNTLLGTVPPYWASFYKQLTKRMGDPATAAGKQWLTERSPLSHVDKISKPLLIGQGANDPRVKQAESDQIVNAMKAKNIPVTYVLFPDEGHGFQRPENSKAFNAVTEGFLSQCLGGRAQPIGADFEGSSITVPEGADRITGLADALKTHTQAIRK", "values": [{"measurement": "protein production", "result": "failed"}]}
